The results in this text go back to patent publication US20260207759A1 (SUZHOU SUNCADIA BIOPHARMACEUTICALS, published 2026).

Read-outs that look alike come from different tables or passages of the source.

The target of experiment [1] is T1, human CD40 on the cell surface (Raji cells, HEK-Blue CD40L cells, primary human B cells and DCs) (human, UniProt P25942 21-277).
T1 construct: whole, on cells; One entry is used for all cell-surface human CD40, endogenous or transfected; also called Raji cell surface human CD40
Nature of the experiment: flow cytometry (FACS) binding to Raji cells.

Experiment [2] has as its target T1, human CD40 on the cell surface (Raji …). Nature of the experiment: cell-based or functional assay.
The target is the same in experiment [3]. Nature of the experiment: flow cytometry (FACS) binding to Raji cells. This is another data set of the same source. (A flow cytometer gives signals particle by particle.)
Experiment [4] shares this target. The experiment is described as follows: cell-based or functional assay. The source holds these as a separate data set.
Experiment [5] shares this target. Nature of the experiment: cell-based or functional assay. This is another data set of the same source.
For experiment [6] the target is unchanged. Nature of the experiment: cell-based or functional assay. This is another data set of the same source.
Experiment [7] shares this target. Nature of the experiment: cell-based or functional assay. This is another data set of the same source.
In experiment [8] the target is T2, his-tagged human CD40 recombinant protein (h-CD40-his, Acrobiosystems Cat. #CD0-H5228) (human, UniProt P25942 21-193).
T2 construct: Purchased reagent; also called His-tagged human CD40 antigen; not shown: His tag
The experiment is described as follows: SPR (Biacore), antibody captured on anti-human Fc chip, His-tagged CD40 as analyte, 1:1 model. (SPR reads the build-up and loss of mass on a sensor chip optically.)

For experiment [9], the target named is T3, his-tagged cynomolgus monkey CD40 recombinant protein (cyno-CD40-his, Acrobiosystems Cat. #CD0-C52H6) (cynomolgus monkey).
T3 construct: Purchased reagent
The description is as above.

Experiment [10] has as its target T2, his-tagged human CD40 recombinant …. The experiment is described as above. The source holds these as a separate data set.
For experiment [11], the target named is T3, his-tagged cynomolgus monkey CD40 …. The experiment is described as above. This is another data set of the same source.
Experiment [12] has as its target human FcRn antigen (purchased from AcroBiosystem) (human, UniProt P55899 24-297; P61769 21-119). Nature of the experiment: SPR (Biacore), antibody captured on anti-human Fab chip, human FcRn as analyte, steady state model.

T1 sequence (P25942 21-277): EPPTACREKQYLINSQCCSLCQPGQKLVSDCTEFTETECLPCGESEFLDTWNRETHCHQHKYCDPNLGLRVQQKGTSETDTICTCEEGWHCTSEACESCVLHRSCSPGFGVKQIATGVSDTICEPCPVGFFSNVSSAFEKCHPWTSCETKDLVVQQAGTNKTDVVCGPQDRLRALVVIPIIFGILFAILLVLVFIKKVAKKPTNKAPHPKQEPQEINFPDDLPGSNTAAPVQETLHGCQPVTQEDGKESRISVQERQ
T2 sequence (P25942 21-193 limits assumed): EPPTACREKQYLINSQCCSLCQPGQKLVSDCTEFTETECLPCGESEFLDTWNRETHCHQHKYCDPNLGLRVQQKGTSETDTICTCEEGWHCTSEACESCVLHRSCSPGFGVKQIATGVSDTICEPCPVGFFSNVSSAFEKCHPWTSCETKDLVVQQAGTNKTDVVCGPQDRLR
human FcRn antigen (purchased from AcroBiosystem), sequence (P55899 24-297 limits assumed, chain 1 of 2): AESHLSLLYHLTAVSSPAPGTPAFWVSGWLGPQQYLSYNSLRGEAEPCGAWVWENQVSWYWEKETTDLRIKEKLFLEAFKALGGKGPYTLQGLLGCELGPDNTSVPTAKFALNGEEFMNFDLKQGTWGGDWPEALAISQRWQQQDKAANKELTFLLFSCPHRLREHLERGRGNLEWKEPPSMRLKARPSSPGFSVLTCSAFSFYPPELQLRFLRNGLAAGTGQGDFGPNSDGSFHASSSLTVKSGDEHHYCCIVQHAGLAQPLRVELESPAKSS
human FcRn antigen (purchased from AcroBiosystem), sequence (P61769 21-119 limits assumed, chain 2 of 2): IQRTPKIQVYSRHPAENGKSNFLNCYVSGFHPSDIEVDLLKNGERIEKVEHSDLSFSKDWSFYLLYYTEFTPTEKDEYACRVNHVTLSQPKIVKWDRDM

B1: 9E6-L2H1 humanized anti-CD40 antibody (antibody, human IgG1, V domains shown)
VH: EVQLQESGPGLVKPSDTLSLTCTVSGFSLSSYDMSWIRQPPGKGLEWIGAIGGAGGTYYASWAKSRVTISVDTSLNQVSLKLSSVTAADTAVYYCARGWTRLDLWGQGTLVTVSS
VL: DIQLTQSPSFLSASVGDRVTITCQASEDISSNLAWYQQKPGKPPKLLIFPASNLASGVPSRFSGSGSGTEFTLTISSLQPEDFATYYCQGGYWTSTSNFGSGFGGGTKVEIK
As a reminder, the EC50 is the concentration at which the effect is half-maximal. In experiment [1], B1 showed a 50% effective concentration (EC50) of 1990 pM.

B2: 9E6-L1H2 humanized anti-CD40 antibody (antibody, human IgG1, V domains shown)
VH: QVQVQESGPGLVKPSDTLSLTCTVSGFSLSSYDMSWIRQPPGKGLEWIGAIGGAGGTYYASWAKSRVTISVDTSLNQVSLKLSSVTAADTAVYYCARGWTRLDLWGQGTLVTVSS
VL: DIQLTQSPSFLSASVGDRVTITCQASEDISSNLAWYQQKPGKPPKLLIFPASNLASGVPSRFSGSGSGTEFTLTISSLQPEDFATYYCQGGYWTSTSNFGNVFGGGTKVEIK
In [1], B2 showed a concentration for a half-maximal effect (EC50) of 1050 pM.

B3: 9E6-L4H1 humanized anti-CD40 antibody (antibody, human IgG1, V domains shown)
VH: EVQLQESGPGLVKPSDTLSLTCTVSGFSLSSYDMSWIRQPPGKGLEWIGAIGGAGGTYYASWAKSRVTISVDTSLNQVSLKLSSVTAADTAVYYCARGWTRLDLWGQGTLVTVSS
VL: DIQLTQSPSFLSASVGDRVTITCQASEDISSNLAWYQQKPGKPPKLLIFPASNLASGVPSRFSGSGSGTEFTLTISSLQPEDFATYYCQGGYWTSTSNFGQGFGGGTKVEIK
In experiment [1], B3 showed an EC50 of 928 pM.

B4: 9E6-L3H1 humanized anti-CD40 antibody (antibody, human IgG1, V domains shown)
VH: EVQLQESGPGLVKPSDTLSLTCTVSGFSLSSYDMSWIRQPPGKGLEWIGAIGGAGGTYYASWAKSRVTISVDTSLNQVSLKLSSVTAADTAVYYCARGWTRLDLWGQGTLVTVSS
VL: DIQLTQSPSFLSASVGDRVTITCQASEDISSNLAWYQQKPGKPPKLLIFPASNLASGVPSRFSGSGSGTEFTLTISSLQPEDFATYYCQGGYWTSTSNFGTGFGGGTKVEIK
On to B4, for which the response in experiment [1] was half-maximal at 1060 pM (EC50).

B5: 9E6-L2H2 humanized anti-CD40 antibody (antibody, human IgG1, V domains shown)
VH: QVQVQESGPGLVKPSDTLSLTCTVSGFSLSSYDMSWIRQPPGKGLEWIGAIGGAGGTYYASWAKSRVTISVDTSLNQVSLKLSSVTAADTAVYYCARGWTRLDLWGQGTLVTVSS
VL: DIQLTQSPSFLSASVGDRVTITCQASEDISSNLAWYQQKPGKPPKLLIFPASNLASGVPSRFSGSGSGTEFTLTISSLQPEDFATYYCQGGYWTSTSNFGSGFGGGTKVEIK
B5 gave an EC50 in experiment [1] of 1660 pM.

B6: 9E6-L1H1 humanized anti-CD40 antibody (antibody, human IgG1, V domains shown)
VH: EVQLQESGPGLVKPSDTLSLTCTVSGFSLSSYDMSWIRQPPGKGLEWIGAIGGAGGTYYASWAKSRVTISVDTSLNQVSLKLSSVTAADTAVYYCARGWTRLDLWGQGTLVTVSS
VL: DIQLTQSPSFLSASVGDRVTITCQASEDISSNLAWYQQKPGKPPKLLIFPASNLASGVPSRFSGSGSGTEFTLTISSLQPEDFATYYCQGGYWTSTSNFGNVFGGGTKVEIK
Turning to B6, in [1], a half-maximal effect (EC50) was put at 1080 pM.

B7: 9E6-L3H2 humanized anti-CD40 antibody (antibody, human IgG1, V domains shown)
VH: QVQVQESGPGLVKPSDTLSLTCTVSGFSLSSYDMSWIRQPPGKGLEWIGAIGGAGGTYYASWAKSRVTISVDTSLNQVSLKLSSVTAADTAVYYCARGWTRLDLWGQGTLVTVSS
VL: DIQLTQSPSFLSASVGDRVTITCQASEDISSNLAWYQQKPGKPPKLLIFPASNLASGVPSRFSGSGSGTEFTLTISSLQPEDFATYYCQGGYWTSTSNFGTGFGGGTKVEIK
As for B7, in experiment [1], the concentration for a half-maximal effect (EC50) was found to be 1150 pM.

B8: 9E6 human-rabbit chimeric anti-CD40 antibody (antibody, V domains shown)
VH: QSVRESEGGLVKPTDTLTLTCTVSGFSLSSYDMSWVRQAPGNGLEWIGAIGGAGGTYYASWAKSRSTITRNTNLNTVTLKMSSLTAADTATYFCARGWTRLDLWGQGTLVTVSS
VL: DIVLTQTPSPVSGAVGGTVTIKCQASEDISSNLAWYQQKPGQPPKLLIFPASNLASGVSSRFKGSGSGTEFTLTISDLECADAATYYCQGGYWTSTSNFGNGFGGGTEVVVK
notes: Rabbit variable regions joined to a human IgG1 constant region with N297A (Eu numbering) and a human kappa constant region
On to B8, for which the “Reporter gene cell activity IC50 (SEAP, HEK-Blue CD40L cells stimulated with CD40L)” value in [2] came out at 221 pM. Besides, the figures for the concentration for a half-maximal effect (EC50) in experiment [3] and in experiment [1] were 608 pM and 895 pM, respectively.

B9: 9E6-L4H2 humanized anti-CD40 antibody (antibody, human IgG1, kappa, N297A)
heavy: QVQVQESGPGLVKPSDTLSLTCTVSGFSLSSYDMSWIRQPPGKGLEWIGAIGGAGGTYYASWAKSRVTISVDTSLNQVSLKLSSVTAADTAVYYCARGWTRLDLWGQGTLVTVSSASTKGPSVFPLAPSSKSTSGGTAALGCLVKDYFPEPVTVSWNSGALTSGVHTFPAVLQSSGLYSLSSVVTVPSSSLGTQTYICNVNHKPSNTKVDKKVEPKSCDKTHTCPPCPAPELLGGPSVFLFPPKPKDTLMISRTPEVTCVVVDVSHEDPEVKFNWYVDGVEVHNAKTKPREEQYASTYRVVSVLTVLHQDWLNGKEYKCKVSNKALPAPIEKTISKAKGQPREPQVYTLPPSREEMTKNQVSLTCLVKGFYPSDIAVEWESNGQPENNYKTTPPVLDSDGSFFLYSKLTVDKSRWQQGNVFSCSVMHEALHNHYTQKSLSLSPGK
light: DIQLTQSPSFLSASVGDRVTITCQASEDISSNLAWYQQKPGKPPKLLIFPASNLASGVPSRFSGSGSGTEFTLTISSLQPEDFATYYCQGGYWTSTSNFGQGFGGGTKVEIKRTVAAPSVFIFPPSDEQLKSGTASVVCLLNNFYPREAKVQWKVDNALQSGNSQESVTEQDSKDSTYSLSSTLTLSKADYEKHKVYACEVTHQGLSSPVTKSFNRGEC
notes: human IgG1 N297A (Eu) heavy chain and kappa light chain
As a reminder, the Kd is the equilibrium constant for the complex coming apart. For orientation: koff means the rate constant with which the complex falls apart. As a reminder, the kon is a measure of how fast the partners come together. For B9, in experiment [4], the “IC50 for the inhibition of CD40 reporter gene cell activity (Experiment 2)” value stood at 500 pM. In experiment [5], the “B cell activation assay, CD19+CD69+ %, IC50” value came to 140 pM and the “B cell activation assay, CD19+CD69+ MFI, IC50” value was determined as 70 pM. In experiment [6], the “IC50 in DC cell activation assay system, CD80 MFI” value stood at 3440 pM; the “IC50 in DC cell activation assay system, CD86 MFI” value is 3720 pM; the “IC50 in DC cell activation assay system, IL-12/23 p40” value is 1850 pM; the “IC50 in DC cell activation assay system, TNFα” value was found to be 700 pM. Further, in experiment [7], the “B cell activation assay, CD19+CD69+%, Donor 1, IC50” value stood at 440 pM and the “B cell activation assay, CD19+CD69+%, Donor 2, IC50” value came to 520 pM. Besides, in experiment [1], the concentration giving a half-maximal response (EC50) is 870 pM. For the same molecule, in [8], the Kd was found to be 536 pM, the dissociation rate constant (koff) stood at 0.000221 s⁻¹ and the on-rate (kon) worked out at 413000 M⁻¹ s⁻¹. In [9], the Kd was found to be 121 pM, the off-rate constant (koff) was determined as 6.23e-05 s⁻¹ and the kon was 514000 M⁻¹ s⁻¹. Besides, in experiment [10], the Kd is 926 pM, the koff was 0.000377 s⁻¹ and the association rate constant (kon) stood at 407000 M⁻¹ s⁻¹. Besides, in experiment [11], the Kd amounted to 294 pM, the koff turned out to be 0.000138 s⁻¹ and the on-rate (kon) was 468000 M⁻¹ s⁻¹. Moreover, in experiment [12], the dissociation constant (Kd) amounted to 293000 pM.

B10: 9E6-L4H2-AAYTE anti-CD40 antibody (IgG1 with L234A, L235A, M252Y, S254T, T256E) (antibody)
heavy: QVQVQESGPGLVKPSDTLSLTCTVSGFSLSSYDMSWIRQPPGKGLEWIGAIGGAGGTYYASWAKSRVTISVDTSLNQVSLKLSSVTAADTAVYYCARGWTRLDLWGQGTLVTVSSASTKGPSVFPLAPSSKSTSGGTAALGCLVKDYFPEPVTVSWNSGALTSGVHTFPAVLQSSGLYSLSSVVTVPSSSLGTQTYICNVNHKPSNTKVDKKVEPKSCDKTHTCPPCPAPEAAGGPSVFLFPPKPKDTLYITREPEVTCVVVDVSHEDPEVKFNWYVDGVEVHNAKTKPREEQYNSTYRVVSVLTVLHQDWLNGKEYKCKVSNKALPAPIEKTISKAKGQPREPQVYTLPPSREEMTKNQVSLTCLVKGFYPSDIAVEWESNGQPENNYKTTPPVLDSDGSFFLYSKLTVDKSRWQQGNVFSCSVMHEALHNHYTQKSLSLSPGK
light: DIQLTQSPSFLSASVGDRVTITCQASEDISSNLAWYQQKPGKPPKLLIFPASNLASGVPSRFSGSGSGTEFTLTISSLQPEDFATYYCQGGYWTSTSNFGQGFGGGTKVEIKRTVAAPSVFIFPPSDEQLKSGTASVVCLLNNFYPREAKVQWKVDNALQSGNSQESVTEQDSKDSTYSLSSTLTLSKADYEKHKVYACEVTHQGLSSPVTKSFNRGEC
In turn, B10 gave a Kd in [12] of 39800 pM.
